Measurements taken from US20250171537A1 (NOVIMMUNE, published 2025).

Molecular target: T1, human CD47 (human, UniProt Q08722 19-139, limits assumed)
T1 construct: in the IHC study it is the native protein in frozen human tissues; also called Integrin-Associated-Protein; IAP
Experiment: immunohistochemistry, biotin-conjugated NI-1801 on frozen human tissues
Text: Sections of ovarian carcinoma (endometrioid adenocarcinoma) were used as positive controls.

T1 sequence (Q08722 19-139 limits assumed): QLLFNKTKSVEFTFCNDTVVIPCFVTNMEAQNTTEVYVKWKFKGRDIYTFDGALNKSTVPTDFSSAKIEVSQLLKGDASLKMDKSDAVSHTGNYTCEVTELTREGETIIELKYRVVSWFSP

B1: NI-1801 (bispecific antibody Ka3×O38, anti-CD47 × anti-mesothelin) (bispecific antibody, human IgG1, kappa, lambda)
heavy: not shown
light 1: not shown
light 2: QPVLTQPASLSASPGASASLTCTLRSGINVRDYRIFWYQQKPGSPPQYLLRYKSASDKQQGSGVPSRFSGSKDASANAGILLISGLQSEDEADYYCMIWHHDSEGHAFVFGGGTKLTVLGQPKAAPSVTLFPPSSEELQANKATLVCLISDFYPGAVTVAWKADSSPVKAGVETTTPSKQSNNKYAASSYLSLTPEQWKSHRSYSCQVTHEGSTVEKTVAPTECS
notes: also called CD47×MSLN bispecific
binding result: binds
